{"source": "patent US20250206802A1", "key": {"[1]": {"target": "αVβ6 headpiece (soluble, disulfide-linked: αv headpiece residues 1-594 with M400C and β6 headpiece residues 1-474 with I270C) (UniProt P06756)", "assay": "fluorescence anisotropy; pH 6.0"}, "[2]": {"target": "αVβ6 headpiece (soluble, disulfide-linked: αv headpiece residues 1-594 with M400C and β6 headpiece residues 1-474 with I270C) (UniProt P06756)", "assay": "fluorescence anisotropy; pH 9.0"}, "[3]": {"target": "αVβ6 headpiece (soluble, disulfide-linked: αv headpiece residues 1-594 with M400C and β6 headpiece residues 1-474 with I270C) (UniProt P06756)", "assay": "fluorescence anisotropy; pH 5.0"}, "[4]": {"target": "αVβ6 headpiece (soluble, disulfide-linked: αv headpiece residues 1-594 with M400C and β6 headpiece residues 1-474 with I270C) (UniProt P06756)", "assay": "fluorescence anisotropy; pH 7.0"}, "[5]": {"target": "αVβ6 headpiece (soluble, disulfide-linked: αv headpiece residues 1-594 with M400C and β6 headpiece residues 1-474 with I270C) (UniProt P06756)", "assay": "fluorescence anisotropy; pH 8.0"}, "[6]": {"target": "αVβ3 headpiece (soluble, disulfide-linked: αv headpiece residues 1-594 with M400C and β3 headpiece residues 1-472 with Q267C) (UniProt P06756)", "assay": "fluorescence anisotropy competition"}, "[7]": {"target": "αVβ6 headpiece (soluble, disulfide-linked: αv headpiece residues 1-594 with M400C and β6 headpiece residues 1-474 with I270C) (UniProt P06756)", "assay": "competitive fluorescence anisotropy on αVβ6 headpiece"}, "[8]": {"target": "αVβ6 headpiece (soluble, disulfide-linked: αv headpiece residues 1-594 with M400C and β6 headpiece residues 1-474 with I270C) (UniProt P06756)", "assay": "fluorescence anisotropy, competition with FITC-GRGDLGRL on αVβ6 headpiece"}, "[9]": {"target": "αVβ3 headpiece (soluble, disulfide-linked: αv headpiece residues 1-594 with M400C and β3 headpiece residues 1-472 with Q267C) (UniProt P06756)", "assay": "fluorescence anisotropy, competition with FITC-GRGDLGRL on αVβ3 headpiece"}}, "data": [{"molecule": "FITC-GRGDLGRL (SEQ ID NO: 68), FITC-pro-TGF-β3 peptide", "values": [{"measurement": "Kd", "setting": "[1]", "value": 2, "unit": "µM"}, {"measurement": "Kd", "setting": "[2]", "value": 0.0274, "unit": "µM"}, {"measurement": "Kd", "setting": "[3]", "value": 3.81, "unit": "µM"}, {"measurement": "Kd", "setting": "[4]", "value": 0.212, "unit": "µM"}, {"measurement": "Kd", "setting": "[5]", "value": 0.0846, "unit": "µM"}]}, {"molecule": "GRGDSP (SEQ ID NO: 72) peptide of fibronectin", "values": [{"measurement": "Kd", "setting": "[6]", "value": 1.6, "unit": "µM"}]}, {"molecule": "HGRGDLGR", "note": "[TGF-β3 undecapeptide truncated from the C-terminus until Leu-247 is removed]", "values": [{"measurement": "step-wise drop in affinity (fold, against the peptide one residue longer)", "setting": "[7]", "value": 10, "unit": "fold"}]}, {"molecule": "GRGDLGRLK", "note": "[nonapeptide containing RGD from pro-TGF-β3, … (SEQ ID NO: 75)]", "values": [{"measurement": "Kd", "setting": "[8]", "value": 0.0085, "unit": "µM"}, {"measurement": "fold lower affinity than for αVβ6", "setting": "[9]", "value": 1000, "unit": "fold"}]}, {"molecule": "HGRGD", "note": "[TGF-β3 undecapeptide truncated from the C-terminus until Leu-244 is removed]", "values": [{"measurement": "step-wise drop in affinity (fold, against the peptide one residue longer)", "setting": "[7]", "value": 10, "unit": "fold"}]}]}
